Source: the DeepSol protein solubility set

Assay: soluble on expression in E. coli; label from the status in PepcDB or PDB records

Soluble on expression in E. coli, not soluble:
MGSDKIHHHHHHMYNKFKLMAKIYLGPAGVPHSAKKKNTVEGIRTVKELGLNAMEVEFVQGVRMSKETAEETGQVARELGVRLSVHAPYFINLCSEEKEKIEASKQRILDTADRAELMGADAIAIHIAFYGKMTPEECYQNVKEGLEEVIDKAREMGIRNVKFGVETMAKETAFGTLDEVISISKELKGVIPYIDWAHTFARQGGEIDYGKIIDRLIKELGLTHINSHFESLVYRRGKYVDEHIPIDANAPPFEPLAKELLKRDISITLICESPELERDALKMKEVLERLGYRLE
MGSDKIHHHHHHMYNVQTYKEKISRFEEVCFNWELKRASIVLNKRFSSYNSSAKVLLDAGFSLYAAKIEVCRELNNGEELERQYTYRSIAEGTLSEKDFKYIWEQCMSGSGNQTSILTIDEHFYSVQTELDKGWEKSCIVFYDKNEPIGMSIPHIETGTESEGRLFYFGVMLYYRGKGIASRLHLQSLHMLKEMGATYYIGSTHTSNEKMQRIFWRNNCSLKTEIELYYKIFNEG
MGSDKIHHHHHHMYRVMFVDDEYMILEGLKWIIPWQELGFEIVKTARSAQEALAFLETESIDVLLTDITMPEMSGIELIEQAKKKGHQFISLILSGYQEFDYVKKGMALQVQDYLLKPVNKQELLANIQRIKIELDQQKKSHARVRLYLENGLMRWLNDEISEGEYEELMQQFATIKPGDFTVLLVEAEMSFLETIKELFMKKGQLLFIESWMSTYHQLLLIYKGARQEAFLFIREIEAILAGQGQIFVGESVNEWETVYESYEKVKQLQAIETFYQEFLPNNQKEQMNRSAEDFTFLAFNQALMIGDMQTIQRELDAIFNQLSQQHATPEYVRYVVFLLFSDISRQYPTVLEENYEKIVEEIRASNNLNTLYALMQQVLAEVKNKPKIKKYSESVSQAVERIEQGYLEELNLKTVADELHLNPSYLGQIFKKETKRSFSQYLNQVRTKHAQKLLLYTDDTINEISEKVGFNNTNYFSKMFKKLNGITPKEFREQYQSNYAGVEE
MGSDKIHHHHHHNEKGGGTGSSSVGADTEPSVTGVHWTVDSVTVNGTTHQAPDGAHVEIAEDGRATGNYGCNSFHSTATFKGDRITLSRTLSTEMACEKRPMEFETTLARALAAGPLTAEAGQGKLTLTTAKGDRVHLTEEKDAPLYGTKWTVNSLIGGDVAQSLPAAADGKAWLTFTKKSESGDKKSGEKERGDKEVGTVSGSLGCNRVSAMATVRGSHITLGAPRTTRQMCSGSLMTTEKSLLKLFDSTVSYRIDHRAITLTSENGEGIGAIADR
MGSDKIHHHHHHNKSEDKLSGDDFWAQGNETNAEAFLLSIYNSFRNATMSQRPFLTYSGDMRCAPITAYSTGDKYVAYLANNDMGELRNTYPDDARGGLIMQWDVFYTAIQDANILLAEIDKVPGMDELKRSRFKAEAIFMRSLSYFFIVRAFGDVPYYTNAYNEAPLPRTNMVIVLQNCLADLQPLLDDDPGAEVLPWSYSSYSSKGIRASRGSVIALMMHINLWLVQFDAQNKEQYYRNVVSLGEELERNNGAYSLLDINRSSVIFAGGSDEGLFEIAQNINFNEIFMMNAKFSDNVSYSCLNKSMPLFCYSGDYLMTLFPMYEDDARKELWFDEKIYSTSVSSSAPKEIKKFWNIDTYGNGTITSNSGNQIVFRYAGALLLYAEALAALGTNDTKACELLNRVRNRAHASEINTSGSELMDAIFWERCRELIGEGHYYYDLVRTGKVYNRNYCMNPMTRTNFNVGAWTWPIHRNALKNNTQIGLNLFWE
MGSDKIHHHHHHQTAEPPKTVRPDQLAFRDLYKELVEINTTLSVGSCTAASEAMGARLKAAGFPEADVRVVVEPKHPREGNLVAVLRGTDATTKPMLLLAHIDVVEAKREDWTRDPFKLVEENGYFYGRGTSDDKAQAAIWVDSLIRLKQAGFKPKRDIKMALTCGEESEGYNGIEDLLKNHRPLVDAEFALNEGASGLLDEQGKAVMLEVQAGEKVYQDFTLTVTNPGGHSSRPVSPNAIYQLSAALDRIGAYQFPPRFNDATRGYFTQMQARVTPEQAAAMKTLVADVNDPAALALITKDRTWNSMLRTTCVATMVSAGHAPNALPQRATANINCRILPGTPIDEVKAKLTELAADPAVAVTLAHSSKPASPPPPLTPAIMAPIQKNAAKLWPGVPILPVMSTGATDAVHTSAAGIPTYGVTGLFHGPEGTGAHGLNERMRVKSLYEGRDFLHGLIQDYAGGK
